According to doi:10.1101/2023.04.25.538284 (bioRxiv, 2023):

Biological target: T1, His-MBP-SIZ1-C (Arabidopsis thaliana, UniProt Q680Q4-3 435-873)
T1 sequence (looked up): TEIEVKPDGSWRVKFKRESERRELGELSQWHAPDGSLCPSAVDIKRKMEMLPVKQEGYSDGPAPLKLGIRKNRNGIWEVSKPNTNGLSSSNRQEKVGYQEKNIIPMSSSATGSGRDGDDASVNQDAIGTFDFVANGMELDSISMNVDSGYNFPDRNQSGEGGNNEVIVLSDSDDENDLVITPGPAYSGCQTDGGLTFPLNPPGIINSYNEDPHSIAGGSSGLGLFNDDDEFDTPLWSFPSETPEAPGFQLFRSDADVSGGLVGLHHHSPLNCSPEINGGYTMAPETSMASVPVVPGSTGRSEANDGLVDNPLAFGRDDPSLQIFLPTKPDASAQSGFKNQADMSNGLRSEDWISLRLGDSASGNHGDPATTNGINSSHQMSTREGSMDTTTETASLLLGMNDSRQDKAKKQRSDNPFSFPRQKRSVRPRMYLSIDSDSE
Assay: pull-down

B1: GST-SnRK2.6 (enzyme, Arabidopsis thaliana, UniProt Q940H6 1-362, looked up)
chain: MDRPAVSGPMDLPIMHDSDRYELVKDIGSGNFGVARLMRDKQSNELVAVKYIERGEKIDENVKREIINHRSLRHPNIVRFKEVILTPTHLAIVMEYASGGELFERICNAGRFSEDEARFFFQQLISGVSYCHAMQVCHRDLKLENTLLDGSPAPRLKICDFGYSKSSVLHSQPKSTVGTPAYIAPEVLLKKEYDGKVADVWSCGVTLYVMLVGAYPFEDPEEPKNFRKTIHRILNVQYAIPDYVHISPECRHLISRIFVADPAKRISIPEIRNHEWFLKNLPADLMNDNTMTTQFDESDQPGQSIEEIMQIIAEATVPPAGTQNLNHYLTGSLDIDDDMEEDLESDLDDLDIDSSGEIVYAM
  binding result: binds

B2: GST-SnRK2.4 (enzyme, Arabidopsis thaliana, UniProt P43291 1-363, looked up)
chain: MDKYELVKDIGAGNFGVARLMKVKNSKELVAMKYIERGPKIDENVAREIINHRSLRHPNIIRFKEVVLTPTHLAIAMEYAAGGELFERICSAGRFSEDEARYFFQQLISGVSYCHAMQICHRDLKLENTLLDGSPAPRLKICDFGYSKSSLLHSRPKSTVGTPAYIAPEVLSRREYDGKMADVWSCGVTLYVMLVGAYPFEDQEDPKNFRKTIQKIMAVQYKIPDYVHISQDCKNLLSRIFVANSLKRITIAEIKKHSWFLKNLPRELTETAQAAYFKKENPTFSLQTVEEIMKIVADAKTPPPVSRSIGGFGWGGNGDADGKEEDAEDVEEEEEEVEEEEDDEDEYDKTVKEVHASGEVRIS
  binding result: binds
